Biological target: the molecule itself
Assay: crystal structure; hanging-drop vapour diffusion; protein 10 mg/ml in 50 mM Tris-HCl pH 8.0; 0.1 M Tris-HCl pH 8.0, 0.2 M CaCl2, 35% PEG 3350, 289 K; space group C2, four molecules in the asymmetric unit; 2.5 Å

B1: Mouse interferon-γ-inducible protein (IP-10) (natural protein, UniProt P17515 22-98, looked up)
chain: IPLARTVRCNCIHIDDGPVRMRAIGKLEIIPASLSCPRVEIIATMKKNDEQRCLNPESKTIKNLMKAFSQKRSKRAP
notes: Mouse IP-10 (CXCL10), cloned and expressed as described by Campanella et al. (2003) with some modifications; The model holds residues 1-68 (A), 1-67 (B), 4-68 (C) and 4-67 (D); No tag is mentioned; C-terminal residues beyond 67/68 were not seen in the electron density; also called mouse IP-10; CXCL10
- stoichiometry N: 4

Source: publication PMC2665906, “Structure of mouse IP-10, a chemokine” (Acta Crystallographica Section D: Biological Crystallography, 2008)
